One experiment concerns the target human CD3εγ (human) (UniProt P07766). The experiment in a line: SPR, Biacore T200; human CD3εγ immobilised on CM5 chip, antibody as analyte. (In SPR one partner is held on a chip, and binding of the other changes the refractive index at the surface.)
Experiment [1] has as its target human CD3εδ (human) (UniProt P07766). Put plainly: SPR, Biacore T200; human CD3εδ immobilised on CM5 chip, antibody as analyte.
For experiment [2] the target is unchanged. The experiment in a line: SPR, Biacore T200; human CD3εδ immobilised on CM5 chip, antibody as analyte (Example 2-3).
Experiment [3] has the same target. The experiment in a line: SPR, Biacore T200; ratio between the KD values on CD3εδ and CD3εγ.
Experiment [4] has as its target human CD3 on T cells of human peripheral blood mononuclear cells (human) (UniProt P07766). Put plainly: cell-based or functional assay.

Chain of human CD3 on T cells of human peripheral blood mononuclear cells (human) (P07766 23-207, chain 1 of 3): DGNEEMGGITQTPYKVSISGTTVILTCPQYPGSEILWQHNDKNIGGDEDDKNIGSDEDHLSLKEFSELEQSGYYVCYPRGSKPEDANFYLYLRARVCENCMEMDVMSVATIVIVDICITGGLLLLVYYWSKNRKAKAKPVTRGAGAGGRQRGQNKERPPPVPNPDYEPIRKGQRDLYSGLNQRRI
Chain of human CD3 on T cells of human peripheral blood mononuclear cells (human) (P04234 22-171, chain 2 of 3, further chain): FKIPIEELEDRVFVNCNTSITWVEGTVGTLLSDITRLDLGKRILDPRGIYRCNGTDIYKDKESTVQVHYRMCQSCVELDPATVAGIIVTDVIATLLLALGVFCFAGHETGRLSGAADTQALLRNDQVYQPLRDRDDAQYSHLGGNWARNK
Chain of human CD3 on T cells of human peripheral blood mononuclear cells (human) (P09693 23-182, chain 3 of 3, further chain): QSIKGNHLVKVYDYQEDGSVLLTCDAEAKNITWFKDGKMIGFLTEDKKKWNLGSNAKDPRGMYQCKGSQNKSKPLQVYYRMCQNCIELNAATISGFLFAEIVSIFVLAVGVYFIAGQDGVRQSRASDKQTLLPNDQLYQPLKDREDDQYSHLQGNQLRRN
Chain of human CD3εδ (human) (P07766 23-126, stated change not applied, chain 1 of 2): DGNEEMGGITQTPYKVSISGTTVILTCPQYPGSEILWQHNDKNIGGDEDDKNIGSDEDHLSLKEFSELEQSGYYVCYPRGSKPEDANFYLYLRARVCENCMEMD
Chain of human CD3εδ (human) (P04234 22-105, stated change not applied, chain 2 of 2, further chain): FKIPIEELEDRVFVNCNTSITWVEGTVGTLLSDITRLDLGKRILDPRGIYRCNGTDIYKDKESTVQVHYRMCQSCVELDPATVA
Chain of human CD3εγ (human) (P07766 23-126, chain 1 of 2): as the sequence (P07766 23-126, stated change not applied, chain 1 of 2) above
Chain of human CD3εγ (human) (P09693 23-116, chain 2 of 2, further chain): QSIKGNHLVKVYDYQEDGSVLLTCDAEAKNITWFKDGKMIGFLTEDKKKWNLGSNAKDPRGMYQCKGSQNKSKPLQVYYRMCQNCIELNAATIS

As for CD3 (UCHT1)-binding monoclonal antibody, the Kd (commonly a measure of binding affinity in units of concentration) with human CD3εγ (human) was found to be 0.272 nM. The substance further came in with a Kd with human CD3εδ (human) [1] of 0.0141 nM. For the same substance, in the experiment with human CD3εδ (human) [2], the equilibrium dissociation constant (Kd) came out at 0.0341 nM. For the same substance, the ratio of the binding strength to CD3εδ / binding strength to CD3εγ with human CD3εδ (human) [3] was determined as 19.3 fold. In experiment [4], the Death of cancer cells, EC50 nM (MDA-MB-231 + human PBMC, 48 h) stood at 0.0005 nM; the Death of cancer cells, Emax (%) was determined as 46%; the IFNγ release, EC50 nM came out at 0.003 nM; the IFNγ release, Maximum concentration came out at 16 ng/mL. The substance also displayed a T cell activation (CD3+ CD8+ CD69+), human PBMC alone without target cells in experiment [4] of 60%.
